Measurements as given in PMC8213764.
Values joined by “and” are separate entries in the source; they are usually repeats but may differ in a detail not shown here. Equal entries are not always repeated.

Molecular target: Human intelectin-1 (ITLN1) of human ileal lysates, genotype at residue 109 not told for the sentence (human (endogenous in ileum)) (UniProt Q8WWA0)
Assay: non-reducing SDS-PAGE immunoblot; human ileal lysates (150 mM NaCl, 1% Triton X-100, 0.5% sodium deoxycholate, 0.1% SDS, 50 mM Tris pH 8.0), heated at 95 °C for 30 min without 2-mercaptoethanol, gradient SDS-PAGE (4-20%), immunoblot; oligomers stable under denaturing conditions

stoichiometry N: 3 and 6
Substance: Human intelectin-1 (ITLN1) of human ileal lysates, genotype at residue 109 not told for the sentence (from UniProt Q8WWA0 19-298) (natural protein)
